# Measurements published in PMC8983717, “Cryo-EM structures of a LptDE transporter in complex with Pro-macrobodies offer insight into lipopolysaccharide translocation” (Nature Communications, 2022).
# B1: sybody 51 (Sb51), synthetic nanobody against NgLptDE (VHH)
# VHH: QVQLVESGGGSVQAGGSLRLSCAASGSISSITYLGWFRQAPGKEREGVAALATYYGHTYYADSVKGRFTVSLDNAKNTVYLQMNSLKPEDTALYYCAAAYSGIWTPLGVWATYEYWGQGTQVTV
# notes: as the sybody moiety of m6 (PMb51), PDB 7OMM, up to the conserved C-terminus VTV
# B2: Neisseria gonorrhoeae LptDE complex (NgLptDE), wild-type full-length LptD and LptE with a C-terminal hexa-histidine tag (complex, N. gonorrhoeae)
# chain 1: ADTVAAEEADGRVAEGGAQGASESAQASDLTLGSTCLFCSNESGSPERTEAAVQGSGEASVPEDYTRIVADRMEGQSKVKVRAEGSVIIERDGAVLNTDWADYDQSGDTVTVGDRFALQQDGTLIRGETLTYNLDQQTGEAHNVRMETEQGGRRLQSVSRTAEMLGEGRYKLTETQFNTCSAGDAGWYVKAASVEADRGKGIGVAKHAAFVFGGVPLFYTPWADFPLDGNRKSGLLVPSVSAGSDGVSLSVPYYFNLAPNFDATFAPGIIGERGATFDGQIRYLRPDYSGQTDLTWLPHDKKSGRNNRYQAKWQHRHDISDTLQAGVDFNQVSDSGYYRDFYGGEEIAGNVNLNRRVWLDYGGRAAGGSLNAGLSVQKYQTLANQSGYKDEPYAIMPRLSADWHKNAGRAQIGVSAQFTRFSHDGRQDGSRLVVYPGIKWDFSNSWGYVRPKLGLHATYYSLDSFGGKASRSVGRVLPVVNIDGGTTFERNTRLFGGGVVQTIEPRLFYNYIPAKSQNDLPNFDSSESSFGYGQLFRENLYYGNDRINAANSLSTAVQSRILDGATGEERFRAGIGQKFYFKDDAVMLDGSVGKNPRSRSDWVAFASGGIGGRFTLDSSIHYNQNDKRAEHYAVGAGYRPAPGKVLNARYKYGRNEKIYLQADGSYFYDKLSQLDLSAQWPLTRNLSAVVRYNYGFEAKKPIEMLAGAEYKSSCGCWGAGVYAQRYVTGENTYKNAVFFSLQLKDLSSVGRNPAGRMDVAVPGYIPAHSLSAGRNKRP
# chain 2: CGFHLKGADGISPPLTYRSWHIEGGQALQFPLETALYQASGRVDDAAGAQMTLRIDSVSQNKETYTVTRAAVINEYLLILTVEAQVLKRGEPVGKPMTVSVRRILDYADNEILGKQEEEETLWAEMRQDVAEQIVRRLTFLKAE
# notes: LptD of N. gonorrhoeae, wild-type full length, UniProt Q5F651; LptE of N. gonorrhoeae, UniProt Q5F9V6; it is put on LptE here; Monomeric and dimeric SEC peaks were kept apart; the monomer was used for the complexes with PMbs; also called LptDE transporter; source: E. coli SF100, pBAD22A, purified from the outer-membrane fraction (LDAO, NiNTA, exchange to LMNG, SEC); also on E. coli SF100 cells …
# B3: N. gonorrhoeae LptD (NgLptD), as the chain of the purified NgLptDE complex (natural protein, UniProt Q5F651 24-801, looked up)
# chain: ADTVAAEEADGRVAEGGAQGASESAQASDLTLGSTCLFCSNESGSPERTEAAVQGSGEASVPEDYTRIVADRMEGQSKVKVRAEGSVIIERDGAVLNTDWADYDQSGDTVTVGDRFALQQDGTLIRGETLTYNLDQQTGEAHNVRMETEQGGRRLQSVSRTAEMLGEGRYKLTETQFNTCSAGDAGWYVKAASVEADRGKGIGVAKHAAFVFGGVPLFYTPWADFPLDGNRKSGLLVPSVSAGSDGVSLSVPYYFNLAPNFDATFAPGIIGERGATFDGQIRYLRPDYSGQTDLTWLPHDKKSGRNNRYQAKWQHRHDISDTLQAGVDFNQVSDSGYYRDFYGGEEIAGNVNLNRRVWLDYGGRAAGGSLNAGLSVQKYQTLANQSGYKDEPYAIMPRLSADWHKNAGRAQIGVSAQFTRFSHDGRQDGSRLVVYPGIKWDFSNSWGYVRPKLGLHATYYSLDSFGGKASRSVGRVLPVVNIDGGTTFERNTRLFGGGVVQTIEPRLFYNYIPAKSQNDLPNFDSSESSFGYGQLFRENLYYGNDRINAANSLSTAVQSRILDGATGEERFRAGIGQKFYFKDDAVMLDGSVGKNPRSRSDWVAFASGGIGGRFTLDSSIHYNQNDKRAEHYAVGAGYRPAPGKVLNARYKYGRNEKIYLQADGSYFYDKLSQLDLSAQWPLTRNLSAVVRYNYGFEAKKPIEMLAGAEYKSSCGCWGAGVYAQRYVTGENTYKNAVFFSLQLKDLSSVGRNPAGRMDVAVPGYIPAHSLSAGRNKRP
# notes: LptD of N. gonorrhoeae, wild-type full length, UniProt Q5F651; The LptD chain of m1; source: E. coli SF100, co-expressed with LptE, purified as the NgLptDE complex (NiNTA, SEC, LMNG)
# Legend:
# [1] = biological target: T1, N. gonorrhoeae LptD (1-801)-3C-His10 and LptE (1-159)-AVI complex, biotinylated (Neisseria gonorrhoeae ATCC 700825 / FA …, UniProt Q5F651;Q5F9V6, biotin on the AVI tag (in vitro, BirA)); experiment: grating-coupled interferometry (GCI); biotinylated NgLptDE immobilised on a 4PCP-S (streptavidin) chip at 600-700 pg/mm2; 20 °C; Tris 25 mM pH 7.5, NaCl 300 mM, DDM 0.1%; 8 concentrations (2-fold dilutions) in duplicate; 1:1 model; conditions: both partners purified
# T1 construct: signal peptide in the construct; LptD of N. gonorrhoeae (Zopf) Trevisan (ATCC 700825), residues 1-801; LptE of N. gonorrhoeae (Zopf) Trevisan (ATCC 700825), residues 1-159; Used for sybody generation and GCI; also called biotinylated NgLptDE; Biotinylated protein; source: E. coli SF100, purified as the NgLptDE complex, biotinylated in vitro with BirA, second SEC; monomeric peak; not shown: AVI, …
# [2] = biological target: the molecule itself; experiment: cryo-EM structure; subset of 80,140 dimeric particles of the NgLptDE-PMb51-PMb21 sample; map at 5.27 Å; pseudo-2-fold symmetry
binder,measurement,setting,value
B1,binding result,[1],binds
B2,stoichiometry N,[2],2
B3,binding result,[2],binds
